Entries after “also recorded” stand apart in the source; their conditions may differ.
How the values were obtained:
[1] = system: human umbilical vein endothelial cells (HUVECs); assay: Uptake of DiL-oxLDL by HUVEC cells (fluorescence microscope, flow cytometry); format: cell-based; conditions: 10 μg/ml DiL-oxLDL, 5 h
Method: Experimental materials: sDSS1 protein, DiL-oxLDL (Thermo Fisher technology, Article No.: L34358), human umbilical vein endothelial cell (HUVEC) (PromoCell, Article No.: C-12200).
Experimental method: HUVEC cells were inoculated into a 6-well plate with 300000 cells per well. After 24 h of adherence, 1.5 ml 10 μg/ml DiL-oxLDL was added, or 1.5 ml 10 μg/ml DiL-oxLDL was added together with 2 μg/ml, 5 μg/ml, 10 μg/ml or 20 μg/ml of the sDSS1 protein. After incubation for 5 h in an incubator, the fluorescence signal in the cells was observed by a fluorescence microscope. The cells were digested with trypsin to form single cells for detecting the fluorescence intensity via flow cytometry.

[2] = Toxic reaction in animal experiments; format: in vivo
Text: The sDSS1 protein used in the following examples is produced and quality controlled by the company itself. Upon detection, the purity of the protein is more than 95%, and endotoxins (the content of endotoxins is less than 3 EU/mg protein) and other impurity residues meet the standards.

Hep G2 cells = assay: Uptake of DiL-LDL by Hep G2 cells (fluorescence microscope, flow cytometry); format: cell-based, human; conditions: 10 h
Method: Materials: sDSS1 protein, DiL-oxLDL, DiL-LDL (ThermoFisher, L3482), human hepatoma cell Hep G2 (Cell Bank of Typical Culture Preservation Committee of Chinese Academy of Sciences, Catalog Number: SCSP-510).
Experimental method: (1) When detecting the phagocytosis of oxLDL by Hep G2 cells, Hep G2 cells were inoculated into a 6-well plate with 250000 cells per well. After 12 h, all the cells were adhered. The old culture medium was discarded. 1.5 ml 10 μg/ml DiL-oxLDL was added, or 1.5 ml 10 μg/ml DiL-oxLDL was added together with 5 μg/ml and 50 μg/ml of the sDSS1 protein. After incubation for 9 h in the incubator, the fluorescence signal in the cells was observed by a fluorescence microscope. The cells were digested by trypsin to form single cells for detecting fluorescence intensity via flow cytometry. (2) When detecting the phagocytosis of LDL by Hep G2 cells, Hep G2 cells were inoculated into a 6-well plate with 250000 cells per well. After 12 h, all the cells were adhered. The old culture medium was discarded. 1.5 ml 10 μg/ml DiL-LDL was added, or 1.5 ml 10 μg/ml DiL-LDL was added together with 5 μg/ml and 50 μg/ml of the sDSS1 protein. After incubation for 10 h in the incubator, the fluorescence signal in the cells was observed by fluorescence microscope. The cells were digested by trypsin to form single cells for detecting fluorescence intensity via flow cytometry.

ApoE−/− mice = assay: Plasma oxLDL and LDL levels (ELISA) in ApoE−/− mice after 7 days of administration; format: in vivo
Text: ApoE−/− mice were divided into two groups, the control group and the sDSS1 protein administration group. […] At the end of the administration, the plasma levels of oxLDL and LDL in mice were detected.
Experimental animal: ApoE−/− mice, 8-10 weeks old, male, were purchased from Nanjing Biomedical Research Institute of Nanjing University. The animals were housed in an animal room for one week before the experiment.
Experimental materials: sDSS1 protein, oxLDL ELISA kit (Wuhan Elabscience Biotechnology Co., Ltd., Article No.: E-EL-M0066c), LDL ELISA kit (Wuhan Elabscience Biotechnology Co., Ltd., product No.: E-EL-M1363c)
Experimental method: the ApoE−/− mice were randomly divided into two groups, a control group and a sDSS1 protein group. For 7 days, 200 μl of normal saline was intraperitoneally injected in control group once a day, and 10 mg/kg of the sDSS1 protein was intraperitoneally injected in sDSS1 protein group once a day. After 7 days of administration, the bloods of mice were collected, and plasma was separated with EDTA-Na as an anticoagulant. The plasma oxLDL level was measured by using the oxLDL ELISA kit, and the plasma LDL level was measured by the LDL ELISA kit.
100 μl of oxLDL standards or samples were added in each well, and incubated for 90 min at 37° C.; the liquid in the well was discarded, 100 μl of biotinylated oxLDL antibody working liquid was added, and incubated at 37° C. for 60 min; washing 3 times; 100 μl of enzyme binding working solution was added, and incubated at 37° C. for 30 min; washing 5 times; 90 μl of substrate solution was added, and incubated at 37° C. for 15 min; 50 μl of termination solution was added, and the OD value was immediately measured at 450 nm wavelength; a standard curve was established with standard products, and the oxLDL level of each sample was calculated according to the standard curve.
100 μl of LDL standards or samples were added into each well, and incubated for 90 min at 37° C.; the liquid in the well was discarded, 100 μl of biotinylated LDL antibody working liquid was added, and incubated at 37° C. for 60 min; washing 3 times; 100 μl of enzyme binding working liquid was added, and incubated at 37° C. for 30 min; washing 5 times; 90 μl of substrate solution was added, and incubated at 37° C. for 15 min; 50 μl of termination solution was added, and the OD value was immediately measured at 450 nm wavelength; a standard curve was established by using standard products, and the LDL level of each sample was calculated according to the standard curve. The oxLDL/LDL ratio=oxLDL concentration (ng/ml)÷LDL concentration (ng/ml) 5.2 Experimental Results

[3] = 50 μg/ml sDSS1 protein, 10 μg/ml DiL-LDL

B1: sDSS1 protein: sDSS1 protein produced by the company itself, purity more than 95%; sequence of human sDSS1 protein is SEQ ID NO:1 (protein, listed as Homo sapiens)
chain: MSEKKQPVDLGLLEEDDEFEEFPAEDWAGLDEDEDAHVWEDNWDDDNVEDDFSNQLRATVLLMILVCETPYGCYVLHQKGRMCSAFLCC
[1]; 2 μg/ml sDSS1 protein
  Fluorescence within HUVEC cells (flow cytometry): significantly weakened
  Uptake of oxLDL by HUVEC cells (flow cytometry statistics): reduced by half
[1]; 10 μg/ml sDSS1 protein
  Fluorescence within HUVEC cells (flow cytometry): significantly weakened
[1]; 2, 5, 10, 20 μg/ml sDSS1 protein
  Concentration dependence of the reduction of fluorescence / oxLDL uptake in HUVEC cells: concentration-dependent; also recorded: gradually weakened; also recorded: obviously dose-dependent
[2]
  Animal toxic reaction: without causing obvious animal toxic reaction
Hep G2 cells; 5 μg/ml sDSS1, 10 μg/ml DiL-LDL
  Intensity of Dil fluorescence in Hep G2 cells, DiL-LDL (flow cytometry): basically consistent
Hep G2 cells; 5 μg/ml sDSS1, 10 μg/ml DiL-LDL, listed as sDSS1
  Intensity of Dil fluorescence in Hep G2 cells, DiL-LDL (flow cytometry): could not cause significant changes
Hep G2 cells; 5 μg/ml sDSS1 protein, 10 μg/ml DiL-LDL
  Quantity of Hep G2 cells uptaking DiL-LDL (fluorescence microscope): not changed significantly
Hep G2 cells; 5 μg/ml sDSS1 protein, 10 μg/ml DiL-LDL, listed as sDSS1
  Quantity of Hep G2 cells uptaking DiL-LDL (fluorescence microscope): no significant difference
Hep G2 cells; [3]
  Intensity of Dil fluorescence in Hep G2 cells, DiL-LDL (flow cytometry): basically consistent; also recorded: could not cause significant changes
  Quantity of Hep G2 cells uptaking DiL-LDL (fluorescence microscope): not changed significantly
Hep G2 cells; 50 μg/ml sDSS1 protein, 10 μg/ml DiL-LDL, listed as sDSS1
  Quantity of Hep G2 cells uptaking DiL-LDL (fluorescence microscope): no significant difference
ApoE−/− mice; sDSS1 10 mg/kg (10 mpk) intraperitoneal once a day
  Plasma LDL level vs control group: no significant difference; also recorded: did not cause significant changes
ApoE−/− mice; sDSS1 10 mg/kg intraperitoneal once a day
  Plasma oxLDL/LDL ratio vs control group: significantly lower
ApoE−/− mice; sDSS1 30 mg/kg (30 mpk) intraperitoneal once a day
  Plasma LDL level vs control group: did not cause significant changes
ApoE−/− mice; sDSS1 30 mg/kg (30 mpk, high dose) intraperitoneal once a day
  Plasma oxLDL level vs control group: significantly reduced
ApoE−/− mice; sDSS1 high dose (30 mpk) intraperitoneal once a day
  Plasma oxLDL/LDL ratio vs control group: significantly lower
